According to PMC6159513:

Assays:
Experiment in all cases: EMSA
[1] = target: TLS/FUSΔP (UniProt P35637 1-526, del449-468)
[2] = target: T1, RGG3ΔRGG (UniProt P35637 449-526, del468-506)
T1 chain: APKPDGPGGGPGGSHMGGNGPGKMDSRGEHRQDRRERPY

[3] = target: TLS/FUSΔR (UniProt P35637 1-506)
[4] = target: RGG3 (UniProt P35637 449-526)
[5] = target: RGG3ΔP (UniProt P35637 469-526)
[6] = target: RBD (RGG1-RGG2-RGG3 containing) (UniProt P35637 212-526)
[7] = target: TLS/FUS (UniProt P35637 1-526)

Chain of TLS/FUSΔR (P35637 1-506, stated change not applied): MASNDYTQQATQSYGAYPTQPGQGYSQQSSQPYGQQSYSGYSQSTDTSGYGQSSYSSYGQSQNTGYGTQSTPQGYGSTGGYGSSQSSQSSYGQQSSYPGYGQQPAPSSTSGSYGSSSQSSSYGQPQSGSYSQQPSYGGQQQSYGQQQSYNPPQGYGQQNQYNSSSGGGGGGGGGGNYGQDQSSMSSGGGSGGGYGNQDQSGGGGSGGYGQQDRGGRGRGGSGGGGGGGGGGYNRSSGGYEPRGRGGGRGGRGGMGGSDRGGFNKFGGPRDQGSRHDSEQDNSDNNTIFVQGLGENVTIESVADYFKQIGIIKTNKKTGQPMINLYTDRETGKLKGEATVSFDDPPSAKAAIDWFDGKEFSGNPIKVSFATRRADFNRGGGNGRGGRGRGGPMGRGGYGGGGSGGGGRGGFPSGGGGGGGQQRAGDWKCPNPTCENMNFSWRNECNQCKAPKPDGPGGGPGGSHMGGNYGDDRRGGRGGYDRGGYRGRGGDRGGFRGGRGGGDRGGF
Chain of RBD (RGG1-RGG2-RGG3 containing) (P35637 212-526): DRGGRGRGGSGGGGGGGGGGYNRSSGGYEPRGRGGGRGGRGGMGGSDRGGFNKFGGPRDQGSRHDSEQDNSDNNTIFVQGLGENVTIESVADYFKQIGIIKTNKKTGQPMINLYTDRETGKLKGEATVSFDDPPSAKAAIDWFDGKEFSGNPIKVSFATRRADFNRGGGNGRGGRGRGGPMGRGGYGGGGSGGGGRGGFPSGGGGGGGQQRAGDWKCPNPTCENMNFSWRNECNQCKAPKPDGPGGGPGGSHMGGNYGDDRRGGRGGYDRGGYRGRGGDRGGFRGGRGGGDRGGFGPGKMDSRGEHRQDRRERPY

B1: ssDNA (ssDNA)
DNA: AGGGTTAGTGTTAGTGTTAGGG
binding result [1]: no binding
binding result [2]: no binding
binding result [3]: no binding
binding result [4]: no binding

B2: dsDNA (dsDNA)
DNA 1: AGGGTTAGGGTTAGGGTTAGGG
DNA 2: CCCTAACCCTAACCCTAACCCT
binding result [1]: no binding
binding result [3]: no binding

B3: Htelo (structured_DNA)
DNA: AGGGTTAGGGTTAGGGTTAGGG
binding result [5]: no binding
Kd [6]: 6.7 ± 2 nM
binding result [1]: no binding
binding result [2]: no binding
binding result [3]: no binding

B4: ssRNA (ssRNA)
RNA: UUAGGGUUAGUGUUAGUGUUAGGG
binding result [7]: binds
binding result [1]: no binding
binding result [2]: no binding
binding result [3]: no binding
binding result [4]: no binding

B5: TERRA (structured_RNA)
RNA: UUAGGGUUAGGGUUAGGGUUAGGG
binding result [5]: no binding
Kd [6]: 6.2 ± 2 nM
binding result [1]: no binding
binding result [2]: no binding
binding result [3]: no binding

B6: dsRNA (dsRNA)
RNA 1: UUAGGGUUAGGGUUAGGGUUAGGG
RNA 2: CCCUAACCCUAACCCUAACCCUAA
binding result [1]: no binding
binding result [3]: no binding
